{
  "source": "patent US20050118241A1",
  "about": "“Platform for transdermal formulations (ptf)” (priority 2002, published 2005)",
  "origin": "cited, not measured here",
  "settings": "extensively degraded in liver, kidney and plasma",
  "data": [
    {"substance": "glucagon", "values": [
      {"measurement": "half-life", "value": "3 to 6", "unit": "min"}
    ]}
  ]
}
